From patent publication US20110311550A1

Key:
Experiment in all cases: ELISA, lectin-captured E1E2 lysate, Ab 1 ug/ml
[1] = molecular target: E1E2 complex (H77) with E1 mutation L258A (HCV genotype 1a, isolate H77) (UniProt P27958)
[2] = molecular target: E1E2 complex (H77) with E1 mutation I212A (HCV genotype 1a, isolate H77) (UniProt P27958)
[3] = molecular target: E1E2 complex (H77) with E2 mutation T425A (HCV genotype 1a, isolate H77) (UniProt P27958)
[4] = molecular target: E1E2 complex (H77) with E1 mutation N305A (HCV genotype 1a, isolate H77) (UniProt P27958)
[5] = molecular target: E1E2 complex (H77) with E1 mutation D321A (HCV genotype 1a, isolate H77) (UniProt P27958)
[6] = molecular target: E1E2 complex (H77) with E1 mutation Y276A (HCV genotype 1a, isolate H77) (UniProt P27958)
[7] = molecular target: E1E2 complex (H77) with E1 mutation T314A (HCV genotype 1a, isolate H77) (UniProt P27958)
[8] = molecular target: E1E2 complex (H77) with E1 mutation G225A (HCV genotype 1a, isolate H77) (UniProt P27958)
[9] = molecular target: E1E2 complex (H77) with E1 mutation Y192A (HCV genotype 1a, isolate H77) (UniProt P27958)
[10] = molecular target: E1E2 complex (H77) with E1 mutation N234A (HCV genotype 1a, isolate H77) (UniProt P27958)
[11] = molecular target: E1E2 complex (H77) with E2 mutation Y624A (HCV genotype 1a, isolate H77) (UniProt P27958)
[12] = molecular target: E1E2 complex (H77) with E1 mutation M323A (HCV genotype 1a, isolate H77) (UniProt P27958)
[13] = molecular target: E1E2 complex (H77) with E1 mutation N205A (HCV genotype 1a, isolate H77) (UniProt P27958)
[14] = molecular target: E1E2 complex (H77) with E1 mutation G354A (HCV genotype 1a, isolate H77) (UniProt P27958)
[15] = molecular target: E1E2 complex (H77) with E1 mutation V246A (HCV genotype 1a, isolate H77) (UniProt P27958)
[16] = molecular target: E1E2 complex (H77) with E1 mutation M324A (HCV genotype 1a, isolate H77) (UniProt P27958)
[17] = molecular target: E1E2 complex (H77) with E1 mutation V227A (HCV genotype 1a, isolate H77) (UniProt P27958)
[18] = molecular target: E1E2 complex (H77) with E1 mutation R296A (HCV genotype 1a, isolate H77) (UniProt P27958)
[19] = molecular target: E1E2 complex (H77) with E2 mutation A439G (HCV genotype 1a, isolate H77) (UniProt P27958)
[20] = molecular target: E1E2 complex (H77) with E1 mutation A319G (HCV genotype 1a, isolate H77) (UniProt P27958)
[21] = molecular target: E1E2 complex (H77) with E1 mutation P341A (HCV genotype 1a, isolate H77) (UniProt P27958)
[22] = molecular target: E1E2 complex (H77) with E1 mutation P224A (HCV genotype 1a, isolate H77) (UniProt P27958)
[23] = molecular target: E1E2 complex (H77) with E1 mutation T329A (HCV genotype 1a, isolate H77) (UniProt P27958)
[24] = molecular target: E1E2 complex (H77) with E1 mutation P244A (HCV genotype 1a, isolate H77) (UniProt P27958)
[25] = molecular target: E1E2 complex (H77) with E1 mutation Q193A (HCV genotype 1a, isolate H77) (UniProt P27958)
[26] = molecular target: E1E2 complex (H77) with E1 mutation N305A/N325A (HCV genotype 1a, isolate H77) (UniProt P27958)
[27] = molecular target: E1E2 complex (H77) with E1 mutation N209A (HCV genotype 1a, isolate H77) (UniProt P27958)
[28] = molecular target: E1E2 complex (H77) with E1 mutation Q289A (HCV genotype 1a, isolate H77) (UniProt P27958)
[29] = molecular target: E1E2 complex (H77) with E2 mutation E637A (HCV genotype 1a, isolate H77) (UniProt P27958)

## mouse anti-E1 MAb A4 (antibody)
[1]
  Binding relative to wt (%): 99%
[2]
  Binding relative to wt (%): 125%
[3]
  Binding relative to wt (%): 104%
[4]
  Binding relative to wt (%): 123%
[5]
  Binding relative to wt (%): 91%
[6]
  Binding relative to wt (%): 82%
[7]
  Binding relative to wt (%): 99%
[8]
  Binding relative to wt (%): 106%
[9]
  Binding relative to wt (%): 134%
[10]
  Binding relative to wt (%): 105%
[11]
  Binding relative to wt (%): 121%
[12]
  Binding relative to wt (%): 69%
[13]
  Binding relative to wt (%): 96%
[14]
  Binding relative to wt (%): 105%
[15]
  Binding relative to wt (%): 96%
[16]
  Binding relative to wt (%): 80%
[17]
  Binding relative to wt (%): 150%
[18]
  Binding relative to wt (%): 108%
[19]
  Binding relative to wt (%): 119%
[20]
  Binding relative to wt (%): 101%
[21]
  Binding relative to wt (%): 101%
[22]
  Binding relative to wt (%): 99%
[23]
  Binding relative to wt (%): 89%
[24]
  Binding relative to wt (%): 85%
[25]
  Binding relative to wt (%): 81%
[26]
  Binding relative to wt (%): 114%
[27]
  Binding relative to wt (%): 119%
[28]
  Binding relative to wt (%): 49%
[29]
  Binding relative to wt (%): 122%
